Results on nine molecules are retold here after patent US20030104423A1 (WISCONSIN ALUMNI RESEARCH FOUNDATION, published 2003).

Experiment [1] has as its target T1, HMK-His6-σ70, 32P-labeled (pHMK-His6-σ70) (Escherichia coli, UniProt P00579 1-613).
T1 construct: range 1-613; also called ^32P-labeled ?^70; HMK-?^70
Description: far-Western of whole cell lysate, 32P-σ70 probe.

The target of experiment [2] is T1, HMK-His6-σ70, 32P-labeled …. Description: ordered fragment ladder far-Western, 32P-σ70 probe.
In experiment [3] the target is T2, β′ 1-1407 N309D with C-terminal His6 (pTA609) (Escherichia coli, UniProt P0A8T7 1-1407).
T2 construct: range 1-1407
Description: Assembly Eσ32 holo: co-purification with His6-β′ from cells, Western blot; grade. In general terms: In western blotting, separated proteins are transferred to a membrane and probed.
Description: (§1) The cultures were grown at 37° C. with shaking until the A₆₀₀=0.4 for log phase assays and 2 hours longer (A₆₀₀ about 2.0) for the early stationary phase assays. The cells were harvested by centrifugation at 6,000 rpm for 10 minutes and stored at −20° C. until use. The cell pellets were resuspended in 5 ml TE (10 mM Tris-HCl, pH 7.9 and 0.1 mM EDTA) plus 0.15 M NaCl and lysozyme (0.1 mg/ml) then incubated on ice for 15 minutes. The cells were sonicated 2×30 seconds and centrifuged for 25 minutes at 27,000× g to pellet the insoluble material. […] The column was washed with 15 ml TE plus 0.15 M NaCl followed by a second wash with 10 ml TE plus 0.5 M NaCl. The protein was eluted from the column with 4 ml TE plus 0.7 M NaCl and 30% propylene glycol. The eluted sample (4 ml) was diluted with 6 ml buffer B (20 mM Tris-HCl, pH 7.9, 500 mM NaCl, 5 mM imidazole, 0.1% (v/v) Tween 20, and 10% (v/v) glycerol) and loaded (2×) onto 500 μl of Ni²⁺-NTA resin. The resin was washed (2×) with 5 ml of buffer B and eluted with 0.5 ml buffer B plus 0.25 M imidazole. Samples from the elution fractions were assayed by Western blot as described above using Mabs to each subunit or a factor. The secondary antibodies were horseradish peroxidase-labeled goat antimouse IgG antibodies and the signal was generated using the ECL+ substrate system (Amersham) and detected using the STORM FluoroImager and quantitated with IMAGEQUANT software (Molecular Dynamics).

Experiment [4] has as its target T3, β′ 1-1407 R275Q with C-terminal His6 (pTA602) (Escherichia coli, UniProt P0A8T7 1-1407).
T3 construct: range 1-1407
The description is as above.
Description: as §1

In experiment [5] the target is T4, β′ 1-1407 E295K with C-terminal His6 (pTA605) (Escherichia coli, UniProt P0A8T7 1-1407).
T4 construct: range 1-1407
Described as above.
Description: as §1

Experiment [6] concerns the target T5, β′ 1-1407 R293Q with C-terminal His6 (pTA604) (Escherichia coli, UniProt P0A8T7 1-1407).
T5 construct: range 1-1407
The description is as above.
Description: as §1

Experiment [7] concerns the target T6, β′ 1-1407 Y269A with C-terminal His6 (pTA601) (Escherichia coli, UniProt P0A8T7 1-1407).
T6 construct: range 1-1407
The experiment is described as above.
Description: as §1

The target of experiment [8] is T7, β′ 1-1407 N266D with C-terminal His6 (pTA600) (Escherichia coli, UniProt P0A8T7 1-1407).
T7 construct: range 1-1407
Described as above.
Description: as §1

Experiment [9] has as its target T8, β′ 1-1407 A302D with C-terminal His6 (pTA608) (Escherichia coli, UniProt P0A8T7 1-1407).
T8 construct: range 1-1407
Described as above.
Description: as §1

Experiment [10] addresses T9, β′ 1-1407 K280E with C-terminal His6 (pTA603) (Escherichia coli, UniProt P0A8T7 1-1407).
T9 construct: range 1-1407
The description is as above.
Description: as §1

Experiment [11] addresses T10, β′ 1-1407 Q300E with C-terminal His6 (pTA607) (Escherichia coli, UniProt P0A8T7 1-1407).
T10 construct: range 1-1407
The description is as above.
Description: as §1

Experiment [12] concerns the target T11, β′ 1-1407 R297S with C-terminal His6 (pTA606) (Escherichia coli, UniProt P0A8T7 1-1407).
T11 construct: range 1-1407
The description is as above.
Description: as §1

The target in experiment [13] is T12, β′ 1-1407 wild type with C-terminal His6 (pTA577) (Escherichia coli, UniProt P0A8T7 1-1407).
T12 construct: range 1-1407; also called wt; wild type β′
The experiment is described as above.
Description: as §1

In experiment [14] the target is T10, β′ 1-1407 Q300E with C-terminal His6 …. Description: co-purification with His6-β′ from cells, Western blot.
In experiment [15] the target is T11, β′ 1-1407 R297S with C-terminal His6 …. The experiment is described as above.
In experiment [16] the target is T12, β′ 1-1407 wild type with C-terminal …. The description is as above.
Experiment [17] deals with T13, σ70, native, untagged (pLN12) (Escherichia coli, UniProt P00579 1-613).
T13 construct: range 1-613; also called native ?^70
Description: mixed with σ70 and passed over Ni-NTA (control).

A further experiment has as its target T14, Bovine serum albumin (bovine, UniProt P02769 25-607).
T14 construct: also called BSA
Description: Ni-NTA co-immobilization, SDS-PAGE.

Experiment [18] has as its target T13, σ70, native, untagged (pLN12). Description: Ni-NTA co-immobilization, SDS-PAGE.
The target in experiment [19] is T1, HMK-His6-σ70, 32P-labeled …. Description: far-Western of β′1-319 in cell extract, normalized to Western.
Experiment [20] concerns the target T15, σ70 (C132S, C291S, C295S, S442C), labeled with Eu-DTPA-AMCA (pSigma70(442C)) (Escherichia coli, UniProt P00579 1-613).
T15 construct: also called labeled ?^70
Description: electrophoretic mobility shift (EMS) assay, native gel. A general note: Mobility shift assays separate free from complexed probe on a gel.

Experiment [21] concerns the target T15, σ70 (C132S, C291S, C295S, S442C), …. Description: EMS assay, competition with labeled β′-fragment.

Bounds are passed on as bounds.

T14 sequence (P02769 25-607 limits assumed): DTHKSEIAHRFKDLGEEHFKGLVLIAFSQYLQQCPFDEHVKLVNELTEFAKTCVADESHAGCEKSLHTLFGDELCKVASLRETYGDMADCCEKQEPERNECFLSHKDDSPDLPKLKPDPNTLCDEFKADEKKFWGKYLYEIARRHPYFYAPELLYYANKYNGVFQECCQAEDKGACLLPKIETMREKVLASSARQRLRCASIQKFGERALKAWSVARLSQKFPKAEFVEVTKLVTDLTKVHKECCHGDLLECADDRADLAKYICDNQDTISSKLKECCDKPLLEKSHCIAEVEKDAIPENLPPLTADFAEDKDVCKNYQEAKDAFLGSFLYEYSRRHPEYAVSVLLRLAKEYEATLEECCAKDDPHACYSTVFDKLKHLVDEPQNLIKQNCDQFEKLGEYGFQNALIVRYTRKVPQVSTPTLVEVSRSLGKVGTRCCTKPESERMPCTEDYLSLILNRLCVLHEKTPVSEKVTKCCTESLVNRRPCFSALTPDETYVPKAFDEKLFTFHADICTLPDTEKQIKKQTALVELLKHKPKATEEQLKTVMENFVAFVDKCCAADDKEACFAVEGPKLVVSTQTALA

B1: β′100-309, untagged (pTA530) (enzyme)
chain: ERMGHIELASPTAHIWFLKSLPSRIGLLLDMPLRDIERVLYFESYVVIEGGMTNLERQQILTEEQYLDALEEFGDEFDAKMGAEAIQALLKSMDLEQECEQLREELNETNSETKRKKLTKRIKLLEAFVQSGNKPEWMILTVLPVLPPDLRPLVPLDGGRFATSDLNDLYRRVINRNNRLKRLLDLAAPDIIVRNEKRMLQEAVDALLDN
As to B1, the binding result in experiment [1] is reported as “binds”.

B2: N-terminally His6-tagged β′ 1-309, hydroxylamine cleavage fragment (from pTA499) (enzyme)
chain: HHHHHHMKDLLKFLKAQTKTEEFDAIKIALASPDMIRSWSFGEVKKPETINYRTFKPERDGLFCARIFGPVKDYECLCGKYKRLKHRGVICEKCGVEVTQTKVRRERMGHIELASPTAHIWFLKSLPSRIGLLLDMPLRDIERVLYFESYVVIEGGMTNLERQQILTEEQYLDALEEFGDEFDAKMGAEAIQALLKSMDLEQECEQLREELNETNSETKRKKLTKRIKLLEAFVQSGNKPEWMILTVLPVLPPDLRPLVPLDGGRFATSDLNDLYRRVINRNNRLKRLLDLAAPDIIVRNEKRMLQEAVDALLDN
For B2, in [2], the binding result was “binds”.

B3: σ32 of E. coli (the cell's own) (other)
chain: MTDKMQSLALAPVGNLDSYIRAANAWPMLSADEERALAEKLHYHGDLEAAKTLILSHLRFVVHIARNYAGYGLPQADLIQEGNIGLMKAVRRFNPEVGVRLVSFAVHWIKAEIHEYVLRNWRIVKVATTKAQRKLFFNLRKTKQRLGWFNQDEVEMVARELGVTSKDVREMESRMAAQDMTFDLSSDDDSDSQPMAPVLYLQDKSSNFADGIEDDNWEEQAANRLTDAMQGLDERSQDIIRARWLDEDNKSTLQELADRYGVSAERVRQLEKNAMKKLRAAIEA
notes: also called E?32
Turning to B3, the binding result in experiment [3] is reported as “binds”; in [4] it was “no binding”; in [5], “no binding”; in experiment [6] it was “binds”; in [7], “binds”; in experiment [8], “no binding”. Moreover, the binding result is “no binding” in [9]; “binds” in experiment [10]; “binds” in experiment [11]; “binds” in experiment [12]; “binds” in [13].

B4: σF of E. coli (the cell's own) (other)
chain: MNSLYTAEGVMDKHSLWQRYVPLVRHEALRLQVRLPASVELDDLLQAGGIGLLNAVERYDALQGTAFTTYAVQRIRGAMLDELRSRDWVPRSVRRNAREVAQAIGQLEQELGRNATETEVAERLGIDIADYRQMLLDTNNSQLFSYDEWREEHGDSIELVTDDHQRENPLQQLLDSNLRQRVMEAIETLPEREKLVLTLYYQEELNLKEIGAVLEVGESRVSQLHSQAIKRLRTKLGKL
B4: the binding result in experiment [14], in [15] and in experiment [16] was “binds” in each case.

B5: β′1-309, untagged (pTA518) (enzyme)
chain: MKDLLKFLKAQTKTEEFDAIKIALASPDMIRSWSFGEVKKPETINYRTFKPERDGLFCARIFGPVKDYECLCGKYKRLKHRGVICEKCGVEVTQTKVRRERMGHIELASPTAHIWFLKSLPSRIGLLLDMPLRDIERVLYFESYVVIEGGMTNLERQQILTEEQYLDALEEFGDEFDAKMGAEAIQALLKSMDLEQECEQLREELNETNSETKRKKLTKRIKLLEAFVQSGNKPEWMILTVLPVLPPDLRPLVPLDGGRFATSDLNDLYRRVINRNNRLKRLLDLAAPDIIVRNEKRMLQEAVDALLDN
Regarding B5, the binding result in [1] and in experiment [17] was “binds” throughout.

B6: His6-HMK-β′1-309 (pTA525) (enzyme)
chain: MKDLLKFLKAQTKTEEFDAIKIALASPDMIRSWSFGEVKKPETINYRTFKPERDGLFCARIFGPVKDYECLCGKYKRLKHRGVICEKCGVEVTQTKVRRERMGHIELASPTAHIWFLKSLPSRIGLLLDMPLRDIERVLYFESYVVIEGGMTNLERQQILTEEQYLDALEEFGDEFDAKMGAEAIQALLKSMDLEQECEQLREELNETNSETKRKKLTKRIKLLEAFVQSGNKPEWMILTVLPVLPPDLRPLVPLDGGRFATSDLNDLYRRVINRNNRLKRLLDLAAPDIIVRNEKRMLQEAVDALLDN
Take B6: the figures for the binding result (with Bovine serum albumin; in experiment [18]) were “no binding” and “binds”, respectively.

B7: β′1-319 Q300E (pTA617) (enzyme)
chain: MKDLLKFLKAQTKTEEFDAIKIALASPDMIRSWSFGEVKKPETINYRTFKPERDGLFCARIFGPVKDYECLCGKYKRLKHRGVICEKCGVEVTQTKVRRERMGHIELASPTAHIWFLKSLPSRIGLLLDMPLRDIERVLYFESYVVIEGGMTNLERQQILTEEQYLDALEEFGDEFDAKMGAEAIQALLKSMDLEQECEQLREELNETNSETKRKKLTKRIKLLEAFVQSGNKPEWMILTVLPVLPPDLRPLVPLDGGRFATSDLNDLYRRVINRNNRLKRLLDLAAPDIIVRNEKRMLEEAVDALLDNGRRGRAITGS
Turning to B7, in experiment [19], the “relative binding against wild type β′1-319” value was above 7 fold.

B8: HMK-His6-β′(100-309), IC5-labeled (pTA133) (enzyme)
chain: MARRASVHHHHHHMERMGHIELASPTAHIWFLKSLPSRIGLLLDMPLRDIERVLYFESYVVIEGGMTNLERQQILTEEQYLDALEEFGDEFDAKMGAEAIQALLKSMDLEQECEQLREELNETNSETKRKKLTKRIKLLEAFVQSGNKPEWMILTVLPVLPPDLRPLVPLDGGRFATSDLNDLYRRVINRNNRLKRLLDLAAPDIIVRNEKRMLQEAVDALLDN
notes: also called labeled β′-fragment; IC5-labeled β′-fragment
As for B8, the binding result in experiment [20] is “binds”.

B9: HMK-His6-β′(100-309), unlabeled (pTA133) (enzyme)
chain: MARRASVHHHHHHMERMGHIELASPTAHIWFLKSLPSRIGLLLDMPLRDIERVLYFESYVVIEGGMTNLERQQILTEEQYLDALEEFGDEFDAKMGAEAIQALLKSMDLEQECEQLREELNETNSETKRKKLTKRIKLLEAFVQSGNKPEWMILTVLPVLPPDLRPLVPLDGGRFATSDLNDLYRRVINRNNRLKRLLDLAAPDIIVRNEKRMLQEAVDALLDN
notes: also called unlabeled β′-fragment
For B9, the binding result in experiment [21] is “binds”.
